Experimental findings from patent publication US20260193334A1 (ZOETIS SERVICES, published 2026) are described below.

The chains are these.
B1: caninized anti-NGF antibody mAb2 of Tables 1-3, canine IgGB (65), wild-type (antibody, part only; not given: Anti-NGF heavy and light variable domains, part only)
heavy, part: ASTTAPSVFPLAPSCGSTSGSTVALACLVSGYFPEPVTVSWNSGSLTSGVHTFPSVLQSSGLYSLSSMVTVPSSRWPSETFTCNVAHPASKTKVDKPVPKRENGRVPRPPDCPKCPAPEMLGGPSVFIFPPKPKDTLLIARTPEVTCVVVDLDPEDPEVQISWFVDGKQMQTAKTQPREEQFNGTYRVVSVLPIGHQDWLKGKQFTCKVNNKALPSPIERTISKARGQAHQPSVYVLPPSREELSKNTVSLTCLIKDFFPPDIDVEWQSNGQQEPESKYRTTPPQLDEDGSYFLYSKLSVDKSRWQRGDTFICAVMHEALHNHYTQESLSHSPGK
B2: caninized anti-NGF antibody mAb2 of Tables 1-3, canine IgGB (65), N434H (antibody, part only; not given: Anti-NGF heavy and light variable domains, part only)
heavy, part: B1 heavy, part with N322H
B3: anti-TGFβ antibody ZTS-4155, canine IgGB (65), wild-type (antibody)
heavy: EVQLVQSGAEVKKPGASVKVSCKTSGYTFITYWMNWVRQAPGAGLDWMGQIFPASGSTNYNEMFEGRVTLTADTSTSTAYMELSSLRAGDIAVYYCARGDGNYALDAMDYWGQGTLVTASTTAPSVFPLAPSCGSTSGSTVALACLVSGYFPEPVTVSWNSGSLTSGVHTFPSVLQSSGLYSLSSMVTVPSSRWPSETFTCNVAHPASKTKVDKPVPKRENGRVPRPPDCPKCPAPEMLGGPSVFIFPPKPKDTLLIARTPEVTCVVVDLDPEDPEVQISWFVDGKQMQTAKTQPREEQFNGTYRVVSVLPIGHQDWLKGKQFTCKVNNKALPSPIERTISKARGQAHQPSVYVLPPSREELSKNTVSLTCLIKDFFPPDIDVEWQSNGQQEPESKYRTTPPQLDEDGSYFLYSKLSVDKSRWQRGDTFICAVMHEALHNHYTQESLSHSPGK
VL: DIVMTQTPPSLSVSPRETASISCRASESVDSYGNSFMHWYLQKPGQSPQLLIYLASNLESGVSDRFSGSGSGTDFTLRISRVEANDTGVYYCQQNNEDPLTFGQ
notes: built here as variable domain plus IgGB constant domain; also called mAb3 WT
B4: anti-TGFβ antibody ZTS-4155, canine IgGB (65), N434H (antibody)
heavy: B3 heavy with N440H
VL: B3 VL
notes: See m9; also called mAb3 N434H
B5: anti-TGFβ antibody ZTS-4155, canine IgGB (65), N434M (antibody)
chain 1: EVQLVQSGAEVKKPGASVKVSCKTSGYTFITYWMNWVRQAPGAGLDWMGQIFPASGSTNYNEMFEGRVTLTADTSTSTAYMELSSLRAGDIAVYYCARGDGNYALDAMDYWGQGTLVTVSSASTTAPSVFPLAPSCGSTSGSTVALACLVSGYFPEPVTVSWNSGSLTSGVHTFPSVLQSSGLYSLSSMVTVPSSRWPSETFTCNVAHPASKTKVDKPVPKRENGRVPRPPDCPKCPAPEMLGGPSVFIFPPKPKDTLLIARTPEVTCVVVDLDPEDPEVQISWFVDGKQMQTAKTQPREEQFNGTYRVVSVLPIGHQDWLKGKQFTCKVNNKALPSPIERTISKARGQAHQPSVYVLPPSREELSKNTVSLTCLIKDFFPPDIDVEWQSNGQQEPESKYRTTPPQLDEDGSYFLYSKLSVDKSRWQRGDTFICAVMHEALHMHYTQESLSHSPGK
chain 2: DIVMTQTPPSLSVSPRETASISCRASESVDSYGNSFMHWYLQKPGQSPQLLIYLASNLESGVSDRFSGSGSGTDFTLRISRVEANDTGVYYCQQNNEDPLTFGQGTKLEIKRNDAQPAVYLFQPSPDQLHTGSASVVCLLNSFYPKDINVKWKVDGVIQDTGIQESVTEQDKDSTYSLSSTLTMSSTEYLSHELYSCEITHKSLPSTLIKSFQRSEC
B6: anti-TGFβ antibody ZTS-4155, canine IgGB (65), N434Y (antibody)
chain 1: B5 chain 1 with M443Y
chain 2: B5 chain 2
B7: anti-TGFβ antibody ZTS-4155, canine IgGB (65), N434Q (antibody)
chain 1: B5 chain 1 with M443Q
chain 2: B5 chain 2
B8: anti-TGFβ antibody ZTS-4155, canine IgGB (65), N434W (antibody)
chain 1: B5 chain 1 with M443W
chain 2: B5 chain 2
B9: anti-TGFβ antibody ZTS-4155, canine IgGB (65), N434T (antibody)
chain 1: B5 chain 1 with M443T
chain 2: B5 chain 2
B10: anti-TGFβ antibody ZTS-4155, canine IgGB (65), N434R (antibody)
chain 1: B5 chain 1 with M443R
chain 2: B5 chain 2
B11: anti-TGFβ antibody ZTS-4155, canine IgGB (65), N434V (antibody)
chain 1: B5 chain 1 with M443V
chain 2: B5 chain 2
B12: caninized anti-IL31 antibody 34D03, canine IgGB (65), wild-type (antibody)
heavy: EVQLVESGGDLVKPGGSLRLSCVASGFTFSNYGMSWVRQAPGKGLQWVATISYGGSYTYYPDNIKGRFTISRDNAKNTLYLQMNSLRAEDTAMYYCVRGYGYDTMDYWGQGTLVTVSSASTTAPSVFPLAPSCGSTSGSTVALACLVSGYFPEPVTVSWNSGSLTSGVHTFPSVLQSSGLYSLSSMVTVPSSRWPSETFTCNVAHPASKTKVDKPVPKRENGRVPRPPDCPKCPAPEMLGGPSVFIFPPKPKDTLLIARTPEVTCVVVDLDPEDPEVQISWFVDGKQMQTAKTQPREEQFNGTYRVVSVLPIGHQDWLKGKQFTCKVNNKALPSPIERTISKARGQAHQPSVYVLPPSREELSKNTVSLTCLIKDFFPPDIDVEWQSNGQQEPESKYRTTPPQLDEDGSYFLYSKLSVDKSRWQRGDTFICAVMHEALHNHYTQESLSHSPGK
VL: EIVMTQSPASLSLSQEEKVTITCKASQSVSFAGTGLMHWYQQKPGQAPKLLIYRASNLEAGVPSRFSGSGSGTDFSFTISSLEPEDVAVYYCQQSREYPWTFGQGTKLEIK
notes: also called mAb1 WT; ID No. 8
B13: caninized anti-IL31 antibody 34D03, canine IgGB (65), N434H (antibody)
heavy: B12 heavy with N440H
VL: B12 VL
notes: also called mAb1 N434H; ID No. 31
B14: anti-TGFβ antibody ZTS-4155, canine IgGB (65), N434C (antibody)
chain 1: B5 chain 1 with M443C
chain 2: B5 chain 2

Changes are numbered by the printed parent chain. In names and notes the source's numbering stands.

The first assay has as its target canine FcRn complex (FcRn-α subunit and β-microglobulin) (canine). Nature of the assay: SPR (Biacore), FcRn amine-coupled on CM5, IgG as analyte, pH 6, 15 C.
For the molecule B1, the Kd (as a rule, the free concentration of one partner at which half of the binding sites on the other are occupied at equilibrium, for simple one-to-one binding) was 57.2 nM.
Still for that read-out and setting: for B2 the value was 7.3 nM.

For a further assay, the target named is T1, canine FcRn complex (FcRn-α subunit and β-microglobulin) (canine, UniProt A0A8I3PFR8 25-347, biotin labeled through BirA enzymatic reaction in Example 5). The assay is described as above.
T1 sequence (A0A8I3PFR8 entry or part of it, one chain of several): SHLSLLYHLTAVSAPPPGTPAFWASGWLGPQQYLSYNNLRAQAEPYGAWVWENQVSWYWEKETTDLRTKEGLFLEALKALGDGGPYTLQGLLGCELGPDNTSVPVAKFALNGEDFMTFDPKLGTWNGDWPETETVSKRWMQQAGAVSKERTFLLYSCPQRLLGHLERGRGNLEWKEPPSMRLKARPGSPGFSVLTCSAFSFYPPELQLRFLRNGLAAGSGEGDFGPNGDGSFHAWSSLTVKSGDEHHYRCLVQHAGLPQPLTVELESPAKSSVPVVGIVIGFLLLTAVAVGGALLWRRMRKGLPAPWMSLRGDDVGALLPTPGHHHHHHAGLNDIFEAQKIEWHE
B3 registered a dissociation constant Kd of 523 nM.
The same measure, in the same setting: the same measure for B4: 4.8 nM.
Same read-out and setting: the same measure for B5: 18.8 nM; for B6: 1.56 nM; for B7: 11.8 nM.
Same read-out and setting: for B8 the value was 2.11 nM.
B9 showed a Kd of 16.6 nM.
Same read-out and setting: the same measure for B10: 2.7 nM; for B11: 13.6 nM.
For B12, the dissociation constant Kd lay within 15 to 24.4 nM.
Turning to B13, the Kd fell in the range of 0.7 to 1.3 nM.

In a further assay the target is NGF (target protein of mAb2). Nature of the assay: cell-based or functional assay.
B1: the IC50 (cell based potency assay) is 23.7 nM.
In the case of B2, the IC50 (cell based potency assay) amounted to 20.9 nM.

A further assay deals with IL-31 (target protein of mAb1). Nature of the assay: cell-based or functional assay.
B12 gave an IC50 (cell based potency assay) of 1.1 nM.
On the same count and under the same terms, for B13 the value was 0.99 nM.

The target of a further assay is TGFβ (target protein of mAb3). Kind of assay: cell-based or functional assay.
B3 came in with an IC50 (cell based potency assay) of 0.13 µg/mL.

Another assay addresses T1, canine FcRn complex (FcRn-α subunit and …). Kind of assay: SPR (Biacore), FcRn amine-coupled on CM5, IgG as analyte, pH 7.2, 15 C. (In general: In SPR one partner is held on a chip, and binding of the other changes the refractive index at the surface.)
Take B4: binding was put at a Kd of 38 nM.
Same read-out and setting: for B5 the value was 11 nM.
The same measure, in the same setting: the same measure for B6: 38.6 nM; for B7: 50.2 nM; for B8: 162 nM.
On the same count and under the same terms, the same measure for B9: 406 nM.
Take B14: the Kd amounted to 270 nM.
The same measure, in the same setting: the same measure for B10: 285 nM; for B11: 6.19 nM; for B13: 5000 nM.

The target of a further assay is canine FcRn complex (FcRn-α subunit and β-microglobulin) (canine). The assay is described as above.
The molecule B2 displayed a Kd of 1300 nM.
